{
  "source": "patent US20240189408A1",
  "about": "“COMPOSITIONS AND METHODS FOR REDUCING METHANE EMISSIONS IN RUMINANT POPULATIONS” (Arkea Bio Corp., priority 2022, published 2024)",
  "molecules": {"B1": {"name": "ARK011: mRNA: SP + Ova + TM/C, membrane-anchored OVA; SEQ ID NO: 16673 (nucleic acid)", "chain": "ATGTTCGTGTTCCTCGTGCTCCTGCCCCTCGTCTCCAGCCAGTGCGTGGGGTCCATAGGGGCTGCTTCTATGGAGTTCTGTTTTGATGTTTTCAAGGAACTGAAGGTTCACCATGCTAACGAGAACATCTTTTACTGTCCAATAGCCATCATGAGTGCGCTTGCTATGGTTTATTTGGGTGCAAAAGATTCTACTCGCACTCAGATTAATAAGGTCGTTAGATTCGACAAGCTTCCAGGGTTTGGAGACAGTATTGAGGCCCAATGTGGAACGTCAGTCAACGTCCATTCTTCTCTGCGGGACATTCTCAACCAAATAACGAAGCCAAACGACGTGTATTCCTTCTCACTCGCGTCACGGCTGTATGCTGAAGAAAGGTATCCTATCTTGCCAGAATATCTCCAGTGCGTCAAGGAGTTGTATCGAGGCGGACTGGAACCGATCAACTTTCAGACTGCAGCCGACCAGGCCCGCGAACTGATCAACAGCTGGGTCGAGTCTCAGACCAATGGGATCATACGCAATGTGTTGCAACCGAGTAGTGTCGACTCTCAGACGGCTATGGTCTTGGTGAACGCTATAGTCTTCAAAGGTCTGTGGGAGAAGACCTTCAAGGATGAAGACACACAAGCGATGCCATTCAGAGTCACCGAACAAGAAAGCAAACCCGTCCAAATGATGTACCAAATTGGGCTTTTTCGGGTGGCCTCTATGGCCTCTGAGAAAATGAAAATATTGGAACTGCCCTTCGCCAGCGGCACAATGAGTATGTTGGTCCTTCTTCCAGATGAAGTCTCAGGTCTCGAACAGCTTGAGTCTATCATTAACTTTGAGAAACTCACTGAATGGACTTCTTCCAATGTGATGGAAGAACGAAAAATCAAAGTCTACCTGCCCCGAATGAAGATGGAAGAGAAATATAATTTGACATCAGTTCTGATGGCCATGGGAATCACAGACGTGTTTTCATCCTCTGCGAATCTGTCTGGCATATCTTCCGCAGAATCTCTCAAGATCAGTCAAGCCGTCCACGCGGCCCATGCTGAGATAAATGAGGCGGGCAGAGAGGTGGTGGGGTCCGCCGAAGCTGGAGTCGACGCAGCTTCTGTCAGTGAAGAATTTAGGGCCGATCATCCTTTCCTGTTCTGCATAAAGCACATAGCTACGAACGCTGTGCTTTTCTTTGGCAGATGCGTTTCTCCACCCTGGTACATCTGGCTGGGCTTCATCGCAGGACTGATCGCCATCGTCATGGTCACCATAATGCTCTGTTGCATGACCTCCTGCTGTAGCTGCCTGAAAGGCTGTTGCAGCTGCGGGAGCTGCTGCAAATTCGACGAAGACGATAGCGAACCTGTGCTCAAAGGGGTGAAGTTGCATTACACATAGTGA", "modifications": "listed as DNA"}},
  "key": {"[1]": {"assay": "LNP size and polydispersity by DLS (Malvern Panalytical)", "format": "physicochemical", "conditions": "mRNA LNPs, Example 6", "description": "(§1) To prepare lipid nanoparticles (LNPs), the mRNA stocks were thawed on ice. Nucleic acid concentrations were validated by absorbance at 260 nm using a NanoDrop. The mRNAs were then diluted to a final concentration of 0.35 mg/mL mRNA in Precision Nanosystem's dilution buffer. 10 mL of the dilute mRNAs were loaded into separate Luer lock syringes and all bubbles were removed by gentle tapping. A NanoAssemblr Ignite NxGen Cartridge was loaded into the cartridge slot of the Ignite instrument (FIG. 8A, 801) and one mRNA syringe was attached to the aqueous inlet of the cartridge. 3.3 mL of Genvoy-ILM reagent was loaded into a separate Luer lock syringes and all bubbles were removed by gentle tapping. The Genvoy-ILM syringe was then attached to the organic inlet of the cartridge. LNPs were then generated and collected into a 15 mL conical tube. The process was repeated for the remaining two mRNAs and for a buffer only LNP control (empty). Immediately after LNPs were generated, the samples were loaded into 10K dialysis cartridges, submerged into 1×DPBS (Ca^2+ and Mg^2+-free) to reduce the ethanol concentration to <0.5%. After dialysis the LNPs were recovered from the dialysis cartridges and sterile filtered at 0.2 um. Size and polydispersity (FIG. 8A, 802) were measured using a Malvern Panalytical DLS by diluting 40 uL of LNPs into 360 uL of 1×DPBS. […] Encapsulation efficiency was measured using a RiboGreen assay following Precision Nanosystems recommended protocol using a BioTek Synergy H1 Plate Reader. The resultant encapsulation efficiencies are shown in Table 14, with an average of ˜85%.\n(§2) To prepare lipid nanoparticles (LNPs), the mRNA stocks were thawed on ice. Nucleic acid concentrations were validated by absorbance at 260 nm using a NanoDrop. The mRNAs were then diluted to a final concentration of 0.35 mg/mL mRNA in Precision Nanosystem's dilution buffer. 10 mL of the dilute mRNAs were loaded into separate Luer lock syringes and all bubbles were removed by gentle tapping. A NanoAssemblr Ignite NxGen Cartridge was loaded into the cartridge slot of the Ignite instrument and one mRNA syringe was attached to the aqueous inlet of the cartridge. 3.3 mL of Genvoy-ILM reagent was loaded into a separate Luer lock syringes and all bubbles were removed by gentle tapping. The Genvoy-LM syringe was then attached to the organic inlet of the cartridge. LNPs were then generated and collected into a 15 mL conical tube. The process was repeated for the remaining mRNAs and for a buffer only LNP control (empty). Immediately after LNPs were generated, the samples were loaded into 10K dialysis cartridges, submerged into Ix DPBS (Ca^2+ and Mg^2+-free) to reduce the ethanol concentration to <0.5%. After dialysis the LNPs were recovered from the dialysis cartridges and sterile filtered at 0.2 um. Size and polydispersity (FIG. 12 and FIG. 13) were measured using a Malvern Panalytical DLS by diluting 40 uL of LNPs into 360 uL of 1×DPBS. […] Encapsulation efficiency was measured using a RiboGreen assay following Precision Nanosystems recommended protocol using a BioTek Synergy H1 Plate Reader. The resultant encapsulation efficiencies are shown in Table 18, with an average of ˜60%.\n(§3) To prepare lipid nanoparticles (LNPs), the mRNA stocks are thawed on ice. Nucleic acid concentrations are validated by absorbance at 260 nm using a NanoDrop. The mRNAs are then diluted to a final concentration of 0.35 mg/mL mRNA in Precision Nanosystem's dilution buffer. 10 mL of the dilute mRNAs are loaded into separate Luer lock syringes and all bubbles are removed by gentle tapping. A NanoAssemblr Ignite NxGen Cartridge is loaded into the cartridge slot of the Ignite instrument and one mRNA syringe is attached to the aqueous inlet of the cartridge. 3.3 mL of Genvoy-ILM reagent is loaded into a separate Luer lock syringes and all bubbles are removed by gentle tapping. The Genvoy-ILM syringe is then attached to the organic inlet of the cartridge. […]"}, "ovalbumin (OVA)": {"test_system": "ovalbumin (OVA)", "assay": "OVA-specific IgG ELISA of sera after IM or SQ vaccination", "format": "in vivo, dairy cows", "conditions": "one line per animal replicate", "description": "(§4) Bovine nucleic acid vaccination protocols (SQ and IM) were assessed in vivo in the dairy cows through the quantification of the adaptive immune response following inoculation with ovalbumin (OVA). Immune response was assessed by quantifying total IgG and OVA-specific IgG over a 28-day period after vaccination. Both SQ and IM vaccination provided a robust immune response, with IM vaccination providing a higher total immune response than SQ vaccination.\n(§5) Dairy cows were dried off for a period of eight days prior to vaccination. Each vaccine formulation was administered either by IM or SQ injection to three animals. In total, 15 animals were vaccinated with LNPs containing mRNA and 6 animals were vaccinated with empty LNPs. Intramuscular injections were delivered into the cow's right neck muscle by veterinary-trained staff using an 18-gauge 1-1.5″ needle. Subcutaneous injections were delivered into the cow's right shoulder by veterinary-trained staff using an 18-gauge 0.5-0.75″ needle. Total blood samples (˜20 mL) were collected by veterinary-trained staff. Samples were collected into 10 mL vacutainer tubes (2×10 mL) from the coccygeal vein (tail vein) by needle puncture. Harvested blood samples were then processed via ultracentrifugation for serum collection. Isolated serum samples were aliquoted, labeled and stored in cryogenic tubes at −20° C. until use.\nSera samples were thawed on ice and total IgG was quantified using NovateinBio's Bovine OVA sIgG Antibody ELISA Kit (Cat No. BG-BVN11731) following the manufacturer's recommended protocol. Each of the animals vaccinated with a construct show a demonstrable OVA-specific IgG response over the 28-day test period."}, "total IgG": {"test_system": "total IgG", "assay": "Total sera IgG by radial immunodiffusion after IM or SQ vaccination with OVA mRNA LNPs", "format": "in vivo, dairy cows", "conditions": "for Serum IgG Concentration: one line per animal replicate", "description": "as §4, §5\nSera samples were thawed on ice and total IgG was quantified using Triple J Farms' Ig Radial Immunodiffusion (RID) kits (Cat No. 728411) following the manufacturers recommended protocol."}, "[2]": {"assay": "LNP encapsulation efficiency, RiboGreen assay", "format": "physicochemical", "conditions": "mRNA LNPs, Example 6", "description": "as §1, §2, §3"}},
  "note": "Several values for one entry are separate records, joined by “and”; a condition that tells them apart may be missing. Equal entries are not always repeated.",
  "data": [
    {"molecule": "B1", "values": [
      {"measurement": "PDI", "setting": "[1]", "result": 0.1665},
      {"measurement": "Z-avg.", "setting": "[1]", "result": 97.79, "unit": "nm·days"},
      {"measurement": "OVA-specific IgG, Absorbance (OD450)", "setting": "ovalbumin (OVA); IM injection, Day 0, dairy cows", "result": "0.327 OD450 and 0.591 OD450 and 1.937 OD450"},
      {"measurement": "OVA-specific IgG, Absorbance (OD450)", "setting": "ovalbumin (OVA); IM injection, Day 14, dairy cows", "result": "0.64 OD450 and 0.616 OD450 and 1.817 OD450"},
      {"measurement": "OVA-specific IgG, Absorbance (OD450)", "setting": "ovalbumin (OVA); IM injection, Day 21, dairy cows", "result": "0.757 OD450 and 0.513 OD450 and 2.024 OD450"},
      {"measurement": "OVA-specific IgG, Absorbance (OD450)", "setting": "ovalbumin (OVA); IM injection, Day 28, dairy cows", "result": "0.626 OD450 and 0.603 OD450 and 1.663 OD450"},
      {"measurement": "OVA-specific IgG, Absorbance (OD450)", "setting": "ovalbumin (OVA); SQ injection, Day 0, dairy cows", "result": "1.004 OD450 and 0.952 OD450 and 0.756 OD450"},
      {"measurement": "OVA-specific IgG, Absorbance (OD450)", "setting": "ovalbumin (OVA); SQ injection, Day 14, dairy cows", "result": "1.16 OD450 and 0.955 OD450 and 1.085 OD450"},
      {"measurement": "OVA-specific IgG, Absorbance (OD450)", "setting": "ovalbumin (OVA); SQ injection, Day 21, dairy cows", "result": "1.036 OD450 and 0.7 OD450 and 1.063 OD450"},
      {"measurement": "OVA-specific IgG, Absorbance (OD450)", "setting": "ovalbumin (OVA); SQ injection, Day 28, dairy cows", "result": "0.916 OD450 and 0.68 OD450 and 0.704 OD450"},
      {"measurement": "Serum IgG Concentration", "setting": "total IgG; IM injection, Day 0, dairy cows, dose 348-468 ug", "result": "5,261 mg/dL and 5,203 mg/dL and 6,150 mg/dL"},
      {"measurement": "Serum IgG Concentration", "setting": "total IgG; IM injection, Day 14, dairy cows, dose 348-468 ug", "result": "4,902 mg/dL and 5,664 mg/dL and 6,716 mg/dL"},
      {"measurement": "Serum IgG Concentration", "setting": "total IgG; IM injection, Day 28, dairy cows, dose 348-468 ug", "result": "3,702 mg/dL and 4,145 mg/dL and 3,794 mg/dL"},
      {"measurement": "Serum IgG Concentration", "setting": "total IgG; SQ injection, Day 0, dairy cows, dose 353-468 ug", "result": "4,956 mg/dL and 5,599 mg/dL and 4,964 mg/dL"},
      {"measurement": "Serum IgG Concentration", "setting": "total IgG; SQ injection, Day 14, dairy cows, dose 353-468 ug", "result": "4,815 mg/dL and 4,777 mg/dL and 6,139 mg/dL"},
      {"measurement": "Serum IgG Concentration", "setting": "total IgG; SQ injection, Day 21, dairy cows, dose 353-468 ug", "result": "5,722 mg/dL and 4,034 mg/dL and 7,379 mg/dL"},
      {"measurement": "Serum IgG Concentration", "setting": "total IgG; SQ injection, Day 28, dairy cows, dose 353-468 ug", "result": "4,877 mg/dL and 4,344 mg/dL and 3,730 mg/dL"},
      {"measurement": "total sera IgG immune response, treated groups normalized against the empty groups", "setting": "total IgG; dairy cows, 3 animals per construct, 28-day test period, FIG. 9", "result": "robust and prolonged immune response across all 3 animals"},
      {"measurement": "Encapsulation efficiency", "setting": "[2]", "result": 83, "unit": "%"}
    ]}
  ]
}
